In IntAct's records for PubMed 23813973:

Molecular target: dnm1l_human DNM1L (UniProt O00429)
Sequence (O00429 whole entry): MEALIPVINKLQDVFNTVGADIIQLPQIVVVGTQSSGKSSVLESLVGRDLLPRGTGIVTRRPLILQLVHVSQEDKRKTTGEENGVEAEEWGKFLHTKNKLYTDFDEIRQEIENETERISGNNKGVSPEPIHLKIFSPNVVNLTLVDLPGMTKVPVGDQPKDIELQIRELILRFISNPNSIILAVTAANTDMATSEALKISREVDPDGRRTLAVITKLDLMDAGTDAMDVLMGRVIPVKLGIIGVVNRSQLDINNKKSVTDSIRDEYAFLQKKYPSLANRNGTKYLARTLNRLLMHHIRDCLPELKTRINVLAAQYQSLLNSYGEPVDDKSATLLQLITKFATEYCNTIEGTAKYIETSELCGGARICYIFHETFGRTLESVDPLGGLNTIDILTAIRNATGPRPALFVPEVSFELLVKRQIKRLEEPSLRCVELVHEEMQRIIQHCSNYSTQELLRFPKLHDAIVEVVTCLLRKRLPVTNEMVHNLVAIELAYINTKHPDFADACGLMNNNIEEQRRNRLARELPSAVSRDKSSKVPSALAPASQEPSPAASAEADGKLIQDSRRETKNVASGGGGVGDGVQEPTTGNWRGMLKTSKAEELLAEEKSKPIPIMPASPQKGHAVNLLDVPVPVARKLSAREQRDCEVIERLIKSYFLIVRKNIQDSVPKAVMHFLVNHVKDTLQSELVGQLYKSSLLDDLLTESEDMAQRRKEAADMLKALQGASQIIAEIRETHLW

Leucine-rich repeat serine/threonine-protein kinase 2 (Homo sapiens), Q5S007 K1906A;D1994A;D2017A
effect of a mutation on the interaction: decreasing interaction
